Measurements published in patent KR20150063728A (dated 2015).

Assays:
[1] = molecular target: T1, 인간 VEGF-C 폴리펩타이드 (Human VEGF-C; R&D systems; Accession # P49767) (human, UniProt P49767 103-227); assay: ELISA, coated human VEGF-C, scFv detected with anti-HA-HRP; 50% binding concentration (Kd)
T1 construct: Bought; also called hVEGF-C
T1 sequence (looked up): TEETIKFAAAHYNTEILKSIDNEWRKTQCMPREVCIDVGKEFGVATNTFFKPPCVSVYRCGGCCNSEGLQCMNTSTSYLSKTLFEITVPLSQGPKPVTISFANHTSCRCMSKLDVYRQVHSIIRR

[2] = molecular target: T2, FLAG-Tagging 된 hVEGF-C (Accession # P49767) (human, UniProt P49767 103-227, limits assumed); assay: competitive ELISA: scFv inhibits FLAG-hVEGF-C binding to coated hVEGR-R3-Fc
T2 construct: also called FLAG-Tagging 된 VEGF-C; not shown: FLAG tag
T2 sequence (looked up): T1 sequence (looked up)

B1: SAIT-VEGFC-AB-4A2 (scFv 형태의 항-VEGF-C 항체) (scFv, V domains shown)
VH: EVQLLESGGGLVQPGGSLRLSCAASGFTFSSYDMSWVRQAPGKGLEWVSAISYDNGSTYYADSVKGRFTISRDNSKNTLYLQMNSLRAEDTAVYYCARDPYLARLNTFDYWGQGTLVTVSS
VL: QSVLTQPPSASGTPGQRVTISCSGSSSNIGSNNVSWYQQLPGTAPKLLIYYNSHRPSGVPDRFSGSKSGTSASLAISGLRSEDEADYYCATWDSSLNGYVFGGGTKLT
notes: Tested as library scFv (Ni-NTA purified, anti-HA detection)
[1]
  Kd: 26.2 nM
[2]
  IC50: 33.4 nM
